Results reported in the Human Domainome abundance scans (Beltran et al. 2025).
± gives the uncertainty stated by the source.

B1: Calcium-binding protein 2, residues 155 to 219; numbered along this chain, Q9NPB3 (parent)
chain: RELRDAFREFDTNGDGRISVGELRAALKALLGERLSQREVDEILQDVDLNGDGLVDFEEFVRMMS

Variants of: B1
Assay: abundance fitness (aPCA) (normalised: wild type 0, dead -1); higher = more abundant; growth selection in yeast, the domain comes from the species named
Conditions: Homo sapiens

| Variant | abundance fitness |
| --- | --- |
| RELRDAFREFDTNGDGRISVGELRAALKAPLGERLSQREVDEILQDVDLNGDGLVDFEEFVRMMS [L30P] | -0.158 ± 0.094 |
| RELRDAFREFDTNGDGRISVGELRAALKARLGERLSQREVDEILQDVDLNGDGLVDFEEFVRMMS [L30R] | 0.069 ± 0.052 |
| RELRDAFREFDTNGDGRISVGELRAALKAALGERLSQREVDEILQDVDLNGDGLVDFEEFVRMMS [L30A] | -0.255 ± 0.072 |
| RELRDAFREFDTNGDGRISVGELRAALKAVLGERLSQREVDEILQDVDLNGDGLVDFEEFVRMMS [L30V] | -0.053 ± 0.093 |
| RELRDAFREFDTNGDGRISVGELRAALKAQLGERLSQREVDEILQDVDLNGDGLVDFEEFVRMMS [L30Q] | 0.015 ± 0.094 |
| RELRDAFREFDTNGDGRISVGELRAALKANLGERLSQREVDEILQDVDLNGDGLVDFEEFVRMMS [L30N] | 0.151 ± 0.1 |
| RELRDAFREFDTNGDGRISVGELRAALKAWLGERLSQREVDEILQDVDLNGDGLVDFEEFVRMMS [L30W] | -0.245 ± 0.055 |
| RELRDAFREFDTNGDGRISVGELRAALKADLGERLSQREVDEILQDVDLNGDGLVDFEEFVRMMS [L30D] | -0.101 ± 0.27 |
| RELRDAFREFDTNGDGRISVGELRAALKAKLGERLSQREVDEILQDVDLNGDGLVDFEEFVRMMS [L30K] | 0.134 ± 0.083 |
| RELRDAFREFDTNGDGRISVGELRAALKASLGERLSQREVDEILQDVDLNGDGLVDFEEFVRMMS [L30S] | -0.216 ± 0.11 |
| RELRDAFREFDTNGDGRISVGELRAALKATLGERLSQREVDEILQDVDLNGDGLVDFEEFVRMMS [L30T] | -0.008 ± 0.066 |
| RELRDAFREFDTNGDGRISVGELRAALKAELGERLSQREVDEILQDVDLNGDGLVDFEEFVRMMS [L30E] | -0.091 ± 0.1 |
| RELRDAFREFDTNGDGRISVGELRAALKAFLGERLSQREVDEILQDVDLNGDGLVDFEEFVRMMS [L30F] | -0.17 ± 0.083 |
| RELRDAFREFDTNGDGRISVGELRAALKAILGERLSQREVDEILQDVDLNGDGLVDFEEFVRMMS [L30I] | -0.134 ± 0.16 |
| RELRDAFREFDTNGDGRISVGELRAALKACLGERLSQREVDEILQDVDLNGDGLVDFEEFVRMMS [L30C] | 0.057 ± 0.092 |
| RELRDAFREFDTNGDGRISVGELRAALKAMLGERLSQREVDEILQDVDLNGDGLVDFEEFVRMMS [L30M] | -0.595 ± 0.35 |
| RELRDAFREFDTNGDGRISVGELRAALTALLGERLSQREVDEILQDVDLNGDGLVDFEEFVRMMS [K28T] | 0.002 ± 0.085 |
| RELRDAFREFDTNGDGRISVGELRAALYALLGERLSQREVDEILQDVDLNGDGLVDFEEFVRMMS [K28Y] | -0.216 ± 0.35 |
| RELRDAFREFDTNGDGRISVGELRAALVALLGERLSQREVDEILQDVDLNGDGLVDFEEFVRMMS [K28V] | 0.089 ± 0.07 |
| RELRDAFREFDTNGDGRISVGELRAALKVLLGERLSQREVDEILQDVDLNGDGLVDFEEFVRMMS [A29V] | -0.27 ± 0.083 |
| RELRDAFREFDTNGDGRISVGELRAALKILLGERLSQREVDEILQDVDLNGDGLVDFEEFVRMMS [A29I] | -0.204 ± 0.21 |

| Variant | abundance fitness |
| --- | --- |
| RELRDAFREFDTNGDGRISVGELRAALKMLLGERLSQREVDEILQDVDLNGDGLVDFEEFVRMMS [A29M] | -0.049 ± 0.12 |
| RELRDAFREFDTNGDGRISVGELRAALKFLLGERLSQREVDEILQDVDLNGDGLVDFEEFVRMMS [A29F] | -0.208 ± 0.12 |
| RELRDAFREFDTNGDGRISVGELRAALKQLLGERLSQREVDEILQDVDLNGDGLVDFEEFVRMMS [A29Q] | -0.04 ± 0.11 |
| RELRDAFREFDTNGDGRISVGELRAALKNLLGERLSQREVDEILQDVDLNGDGLVDFEEFVRMMS [A29N] | -0.438 ± 0.28 |
| RELRDAFREFDTNGDGRISVGELRAALKLLLGERLSQREVDEILQDVDLNGDGLVDFEEFVRMMS [A29L] | -0.051 ± 0.063 |
| RELRDAFREFDTNGDGRISVGELRAALKKLLGERLSQREVDEILQDVDLNGDGLVDFEEFVRMMS [A29K] | 0.066 ± 0.14 |
| RELRDAFREFDTNGDGRISVGELRAALKELLGERLSQREVDEILQDVDLNGDGLVDFEEFVRMMS [A29E] | -0.096 ± 0.29 |
| RELRDAFREFDTNGDGRISVGELRAALKYLLGERLSQREVDEILQDVDLNGDGLVDFEEFVRMMS [A29Y] | -0.214 ± 0.21 |
| RELRDAFREFDTNGDGRISVGELRAALKHLLGERLSQREVDEILQDVDLNGDGLVDFEEFVRMMS [A29H] | -0.149 ± 0.33 |
| RELRDAFREFDTNGDGRISVGELRAALKCLLGERLSQREVDEILQDVDLNGDGLVDFEEFVRMMS [A29C] | -0.31 ± 0.3 |
| RELRDAFREFDTNGDGRISVGELRAALKSLLGERLSQREVDEILQDVDLNGDGLVDFEEFVRMMS [A29S] | -0.02 ± 0.089 |
| RELRDAFREFDTNGDGRISVGELRAALKGLLGERLSQREVDEILQDVDLNGDGLVDFEEFVRMMS [A29G] | -0.135 ± 0.053 |
| RELRDAFREFDTNGDGRISVGELRAALKDLLGERLSQREVDEILQDVDLNGDGLVDFEEFVRMMS [A29D] | 0.063 ± 0.18 |
| RELRDAFREFDTNGDGRISVGELRAALKWLLGERLSQREVDEILQDVDLNGDGLVDFEEFVRMMS [A29W] | -0.034 ± 0.067 |
| RELRDAFREFDTNGDGRISVGELRAALKRLLGERLSQREVDEILQDVDLNGDGLVDFEEFVRMMS [A29R] | 0.047 ± 0.054 |
| RELRDAFREFDTNGDGRISVGELRAALKTLLGERLSQREVDEILQDVDLNGDGLVDFEEFVRMMS [A29T] | -0.023 ± 0.07 |
| RELRDAFREFDTNGDGRISVGELRAALKPLLGERLSQREVDEILQDVDLNGDGLVDFEEFVRMMS [A29P] | -0.497 ± 0.089 |
| RELRDAFREFDTNGDGRISVGELRAALKALDGERLSQREVDEILQDVDLNGDGLVDFEEFVRMMS [L31D] | -0.164 ± 0.19 |
| RELRDAFREFDTNGDGRISVGELRAALKALAGERLSQREVDEILQDVDLNGDGLVDFEEFVRMMS [L31A] | 0.127 ± 0.059 |
| RELRDAFREFDTNGDGRISVGELRAALKALEGERLSQREVDEILQDVDLNGDGLVDFEEFVRMMS [L31E] | 0.069 ± 0.082 |
| RELRDAFREFDTNGDGRISVGELRAALKALFGERLSQREVDEILQDVDLNGDGLVDFEEFVRMMS [L31F] | 0.047 ± 0.13 |
